Tests used:
[1] = target: T1, recombinant human common γ chain (γc; CD132) (human, UniProt P31785 23-262); assay: SPR, recombinant receptor chain immobilised on the chip, antibody flowed over
T1 construct: Recombinant chain immobilised on the SPR chip and used as antigen in the ELISAs; also called IL-2Rγc; IL-2Rγ
T1 sequence (looked up): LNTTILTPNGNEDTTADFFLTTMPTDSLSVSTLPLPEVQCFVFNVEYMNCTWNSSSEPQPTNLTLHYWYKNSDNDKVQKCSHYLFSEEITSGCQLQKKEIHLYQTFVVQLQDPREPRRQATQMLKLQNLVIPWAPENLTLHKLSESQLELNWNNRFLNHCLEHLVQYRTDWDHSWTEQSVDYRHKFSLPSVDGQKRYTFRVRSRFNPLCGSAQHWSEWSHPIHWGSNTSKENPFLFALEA

[2] = target: T2, recombinant human interleukin 2 receptor β (IL-2Rβ; CD122) (human, UniProt P14784 27-240); assay: as above
T2 construct: Recombinant chain immobilised on the SPR chip and used as antigen in the ELISAs; also called human IL-2Rβ
T2 sequence (looked up): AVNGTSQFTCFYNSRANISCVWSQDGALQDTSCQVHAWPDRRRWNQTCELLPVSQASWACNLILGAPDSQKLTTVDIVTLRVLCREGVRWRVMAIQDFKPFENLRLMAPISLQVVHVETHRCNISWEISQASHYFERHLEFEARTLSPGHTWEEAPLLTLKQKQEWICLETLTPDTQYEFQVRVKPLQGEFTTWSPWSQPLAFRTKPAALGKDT

Kd [1]: 78.7 nM
Kd [2]: 181 nM
B1: bispecific anti-IL-2Rβ/γc antibody P2D12/P1A3 (bispecific antibody)
chain 1: HVQLVETGGGLVQPGGSLRLSCAASGFTFSSYAMSWVRQAPGKGLEWVSAISGSGGSTYYADSVKGRFTISRDNSKNTLYLQMNSLRAEDTAVYYCARDLGDYWGQGTLVTVSSGGGGSGGGGSGGGGSDIQLTQSPSSLSASVGDRVTITCQASQDIGNYLNWYQLKPGKAPKLLIYDASNLETGVPSRFSGSGSGTDFTFTISSLQPEDIATYYCLQLYDYPLTFGGGTKVEIK
chain 2: not shown
